Test results reported in publication PMC8510090, “The DNA Recognition Motif of GapR Has an Intrinsic DNA Binding Preference towards AT-rich DNA” (Molecules, 2021).

What was measured:
[1] = biological target: T1, GapRΔC17 (Caulobacter crescentus, UniProt B8H4R9 1-72); assay: NMR titration (1H-15N HSQC); MST: 20 mM PBS, 150 mM NaCl, 0.02% n-dodecyl-β-D-maltoside, pH 7, 20 nM labeled dimer (labeling at room temperature); NMR netropsin competition: 50 mM sodium phosphate, 150 mM NaCl, pH 7.0, 90% H2O/5% D2O (so in the source); conditions: protein: recombinant; tags: C-terminal His6; chain copies: 2
T1 sequence: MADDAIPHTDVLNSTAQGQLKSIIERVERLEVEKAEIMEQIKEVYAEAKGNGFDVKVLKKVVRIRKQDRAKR

[2] = biological target: T1, GapRΔC17; assay: MST; MST: 20 mM PBS, 150 mM NaCl, 0.02% n-dodecyl-β-D-maltoside, pH 7, 20 nM labeled dimer (labeling at room temperature); NMR netropsin competition: 50 mM sodium phosphate, 150 mM NaCl, pH 7.0, 90% H2O/5% D2O (so in the source); conditions: protein: recombinant, tags: C-terminal His6, chain copies: 2
[3] = biological target: the molecule itself; assay: crystal structure; hanging drop vapor diffusion at room temperature; protein 10 mg/mL in 50 mM HEPES pH 7.0, 300 mM NaCl; 0.1 M sodium cacodylate pH 6.0, 15% PEG4000; 2.08 angstrom

B1: 3AT DNA (dsDNA)
DNA 1: CGCATATATGCG
DNA 2: CGCATATATGCG
binding result [1]: binds

B2: 6A DNA (dsDNA)
DNA 1: CGCAAAAAAGCG
DNA 2: CGCTTTTTTGCG
Kd ([2]; blunt): 1.1 ± 0.1 µM

B3: 6CG DNA (dsDNA)
DNA 1: CGCGCGCGCGCG
DNA 2: CGCGCGCGCGCG
Kd [2]: 18 ± 2 µM

B4: GapR^ΔC17 (DNA binding domain of GapR, residues 1–72) (domain or fragment, Caulobacter crescentus, UniProt B8H4R9 1-72, looked up)
chain: MADDAIPHTDVLNSTAQGQLKSIIERVERLEVEKAEIMEQIKEVYAEAKGNGFDVKVLKKVVRIRKQDRAKR
notes: GapR, nucleoid-associated protein of Caulobacter crescentus, gene gapr (CCNA_03428), residues 1-72 (the C-terminal 17 residues, most of helix α3, deleted); 8.2 kDa; Cloned into the NdeI and XhoI sites of pET-21a(+) and followed by a C-terminal His6-tag; A selenomethionyl derivative was used for phasing; also called DNA recognition motif of GapR; dimer unit of GapR; source: E. coli Rosetta (DE3), …
binding result [3]: binds
